Sequences and labels used below:
B1: Human Type I taste receptor T1R3 (receptor, UniProt Q7RTX0 21-852, looked up)
chain: APLCLSQQLRMKGDYVLGGLFPLGEAEEAGLRSRTRPSSPVCTRFSSNGLLWALAMKMAVEEINNKSDLLPGLRLGYDLFDTCSEPVVAMKPSLMFLAKAGSRDIAAYCNYTQYQPRVLAVIGPHSSELAMVTGKFFSFFLMPQVSYGASMELLSARETFPSFFRTVPSDRVQLTAAAELLQEFGWNWVAALGSDDEYGRQGLSIFSALAAARGICIAHEGLVPLPRADDSRLGKVQDVLHQVNQSSVQVVLLFASVHAAHALFNYSISSRLSPKVWVASEAWLTSDLVMGLPGMAQMGTVLGFLQRGAQLHEFPQYVKTHLALATDPAFCSALGEREQGLEEDVVGQRCPQCDCITLQNVSAGLNHHQTFSVYAAVYSVAQALHNTLQCNASGCPAQDPVKPWQLLENMYNLTFHVGGLPLRFDSSGNVDMEYDLKLWVWQGSVPRLHDVGRFNGSLRTERLKIRWHTSDNQKPVSRCSRQCQEGQVRRVKGFHSCCYDCVDCEAGSYRQNPDDIACTFCGQDEWSPERSTRCFRRRSRFLAWGEPAVLLLLLLLSLALGLVLAALGLFVHHRDSPLVQASGGPLACFGLVCLGLVCLSVLLFPGQPSPARCLAQQPLSHLPLTGCLSTLFLQAAEIFVESELPLSWADRLSGCLRGPWAWLVVLLAMLVEVALCTWYLVAFPPEVVTDWHMLPTEALVHCRTRSWVSFGLAHATNATLAFLCFLGTFLVRSQPGCYNRARGLTFAMLAYFITWVSFVPLLANVQVVLRPAVQMGALLLCVLGILAAFHLPRCYLLMRQPGLNTPEFFLGGGPGDAQGQNDGNTGNQGKHE
notes: whole, on cells; Present on the cells as a T1R3/T1R3 homodimer or as a heterodimer with T1R2 or T1R1; also called TAS1R3; hT1R3

Where no end group is shown, it is not given here.

The target of assay [1] is B1. In words: fluorescence microscopy on SH-SY5Y cells.
A further assay has as its target T1, Amyloid β peptide Aβ1-42.
T1 construct: Bought (Wako Pure Chemical Industries); also called Aβ42; amyloid β1-42 peptide
The assay is described as follows: assay not described.

The target of assay [2] is T2, Fluorescent Aβ1-40 peptide (fluorescent label; dye and position not stated).
T2 construct: also called labeled Aβ1-40 peptide
T2 sequence (peptide, as listed by the source): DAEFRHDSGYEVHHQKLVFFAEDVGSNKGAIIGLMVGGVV
In words: fluorescence microscopy on cell surfaces.

T1 sequence (peptide, as listed by the source): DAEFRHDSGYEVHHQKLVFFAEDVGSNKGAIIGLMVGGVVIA

Regarding GSNKGAIIGLM (also: fluorescent label, dye and position not given here, also called fluorescent Aβ25-35 peptide) [Fluorescently labeled Aβ25-35 peptide (FL-Aβ25-35)], the binding result in assay [1] is given as “binds”.
For the molecule B1, the binding result (with Amyloid β peptide Aβ1-42; in assay [2]) was “binds” each time.

The values above are taken from patent US20260240820A1 (ION CHAT RESEARCH CORPORATE, published 2026).
